Measurements published in paper PMC12678314.

Target: glutamate-1-semialdehyde aminotransferase (GSAAT), endogenous (Arabidopsis thaliana (endogenous in leaf extracts; the plant of the chloroplast extracts is not named)) (UniProt P42799)
Experiment: non-reducing SDS-PAGE with immunoblot; wild-type Arabidopsis leaf extracts, untreated or pretreated with H2O2, diamide or DTT for 30 min at room temperature; non-reducing 8% SDS-PA gel (the text says non-denaturing PA gel); GSAAT-specific antibody

glutamate-1-semialdehyde aminotransferase (GSAAT), endogenous, sequence (P42799 39-474): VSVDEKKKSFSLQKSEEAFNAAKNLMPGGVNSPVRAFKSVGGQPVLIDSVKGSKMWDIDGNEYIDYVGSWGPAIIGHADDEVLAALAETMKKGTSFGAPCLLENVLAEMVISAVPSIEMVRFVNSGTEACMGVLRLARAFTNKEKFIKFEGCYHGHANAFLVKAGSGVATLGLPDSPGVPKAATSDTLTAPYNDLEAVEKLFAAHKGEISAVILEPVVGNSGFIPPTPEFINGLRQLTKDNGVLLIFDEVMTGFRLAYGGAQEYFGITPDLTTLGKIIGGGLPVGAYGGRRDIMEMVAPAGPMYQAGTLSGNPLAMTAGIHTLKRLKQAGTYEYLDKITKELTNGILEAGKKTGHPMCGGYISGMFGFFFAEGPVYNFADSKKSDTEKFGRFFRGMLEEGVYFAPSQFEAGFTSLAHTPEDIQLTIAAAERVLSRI

stoichiometry N: 2
Substance: glutamate-1-semialdehyde aminotransferase (GSAAT), endogenous (from UniProt P42799 39-474) (enzyme)
